Measured values: patent US7063950

Target: human neuronal calcium channel α1B-1α2bβ1-2 (human)
Assay: ω-CgTx binding to transiently transfected HEK293 cells (plasmid ratio 2:1.8:1)

ω-CgTx GVIA (from UniProt P01522 46-72) (peptide)
Kd: 0.0546 nM | binding capacity (Bmax) (sites per cell): 28700
